Assay results from paper PMC11463468.

Assays:
MBD-Halo-AF660 [1] = biological target: T1, MBD-Halo-AF660 (Homo sapiens, UniProt Q9UIS9 1-77); assay: single-molecule TIRF
T1 sequence: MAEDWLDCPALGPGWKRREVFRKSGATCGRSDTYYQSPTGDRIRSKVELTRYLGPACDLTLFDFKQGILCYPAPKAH

MBD-Halo-AF660 [2] = biological target: T1, MBD-Halo-AF660; assay: single-molecule TIRF; remark: listed apart in the source
MBD-Halo-AF660 [3] = biological target: T1, MBD-Halo-AF660; assay: single-molecule TIRF; remark: listed apart in the source
MBD-Halo-AF660 [4] = biological target: T1, MBD-Halo-AF660; assay: single-molecule TIRF; remark: listed apart in the source
MBD-Halo-AF660 [5] = biological target: T1, MBD-Halo-AF660; assay: single-molecule TIRF; remark: listed apart in the source
[6] = biological target: T2, MBD-Halo (MBD1 MBD-GGGSG-HaloTag) (Homo sapiens, UniProt Q9UIS9 1-77); assay: EMSA
T2 sequence: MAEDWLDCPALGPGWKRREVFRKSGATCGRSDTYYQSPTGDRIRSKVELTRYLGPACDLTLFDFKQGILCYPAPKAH

MBD-Halo-AF660 [7] = biological target: T1, MBD-Halo-AF660; assay: EMSA
MBD-Halo-AF660 [8] = biological target: T1, MBD-Halo-AF660; assay: single-molecule TIRF; remark: listed apart in the source
MBD-Halo-AF660 [9] = biological target: T1, MBD-Halo-AF660; assay: single-molecule TIRF; remark: listed apart in the source
MBD-Halo-AF660 [10] = biological target: T1, MBD-Halo-AF660; assay: single-molecule TIRF; remark: listed apart in the source
MBD-Halo-AF660 [11] = biological target: T1, MBD-Halo-AF660; assay: single-molecule TIRF; remark: listed apart in the source
MBD-Halo-AF660 [12] = biological target: T1, MBD-Halo-AF660; assay: single-molecule TIRF; remark: listed apart in the source
MBD-Halo-AF660 [13] = biological target: T1, MBD-Halo-AF660; assay: single-molecule TIRF; remark: listed apart in the source
MBD-Halo-AF660 [14] = biological target: T1, MBD-Halo-AF660; assay: single-molecule TIRF; remark: listed apart in the source
MBD-Halo-AF660 [15] = biological target: T1, MBD-Halo-AF660; assay: single-molecule TIRF; remark: listed apart in the source
MBD-Halo-AF660 [16] = biological target: T1, MBD-Halo-AF660; assay: single-molecule TIRF; remark: listed apart in the source

B1: SM single-molecule (M7-A39m-CPO) (dsDNA)
DNA 1: GTCTTCCTGCTGATGCAATCCGCTAGGTCGCGAGTCTCCGCCGCGAGAGGGCCGG
DNA 2: CCGGCCCTCTCGCGGCGGAGACTCGCGACCTAGCGGATT
DNA 3: ATAATTAATAGCATCAGCAGGAAGAC
modifications: 5mC strand 1: 21,29,31,39,42,44,53; strand 2: 2,11,13,16,24,26,34
Does B1 bind (MBD-Halo-AF660 [1])?
Result: binds

B2: M4a-A39m-CP (dsDNA)
DNA 1: GTCTTCCTGCTGATGCAATCCGCTAGGTCGCGAGTCTCCGCCGCGAGAGGGCCGG
DNA 2: CCGGCCCTCTCGCGGCGGAGACTCGCGACCTAGCGGATT
DNA 3: GCATCAGCAGGAAGAC
modifications: 5mC strand 1: 29,31,42,44; strand 2: 2,11,13,16,24,26,34
Does B2 bind (MBD-Halo-AF660 [2])?
Result: binds

B3: M3a-A39m-CP (dsDNA)
DNA 1: GTCTTCCTGCTGATGCAATCCGCTAGGTCGCGAGTCTCCGCCGCGAGAGGGCCGG
DNA 2: CCGGCCCTCTCGCGGCGGAGACTCGCGACCTAGCGGATT
DNA 3: GCATCAGCAGGAAGAC
modifications: 5mC strand 1: 39,42,44; strand 2: 2,11,13,16,24,26,34
Does B3 bind (MBD-Halo-AF660 [3])?
Result: binds

B4: M2a-A39m-CP (dsDNA)
DNA 1: GTCTTCCTGCTGATGCAATCCGCTAGGTCGCGAGTCTCCGCCGCGAGAGGGCCGG
DNA 2: CCGGCCCTCTCGCGGCGGAGACTCGCGACCTAGCGGATT
DNA 3: GCATCAGCAGGAAGAC
modifications: 5mC strand 1: 29,31; strand 2: 2,11,13,16,24,26,34
Does B4 bind (MBD-Halo-AF660 [4])?
Result: binds

B5: M2c-A39m-CP (dsDNA)
DNA 1: GTCTTCCTGCTGATGCAATCCGCTAGGTCGCGAGTCTCCGCCGCGAGAGGGCCGG
DNA 2: CCGGCCCTCTCGCGGCGGAGACTCGCGACCTAGCGGATT
DNA 3: GCATCAGCAGGAAGAC
modifications: 5mC strand 1: 42,53; strand 2: 2,11,13,16,24,26,34
Does B5 bind (MBD-Halo-AF660 [5])?
Result: no binding

B6: M1b-A39m-CP (dsDNA)
DNA 1: GTCTTCCTGCTGATGCAATCCGCTAGGTCGCGAGTCTCCGCCGCGAGAGGGCCGG
DNA 2: CCGGCCCTCTCGCGGCGGAGACTCGCGACCTAGCGGATT
DNA 3: GCATCAGCAGGAAGAC
modifications: 5mC strand 1: 53; strand 2: 2,11,13,16,24,26,34
Does B6 bind (MBD-Halo-AF660 [5])?
Result: no binding

B7: SM 55 bp (M7/M7_rev) (dsDNA)
DNA 1: GTCTTCCTGCTGATGCAATCCGCTAGGTCGCGAGTCTCCGCCGCGAGAGGGCCGG
DNA 2: CCGGCCCTCTCGCGGCGGAGACTCGCGACCTAGCGGATTGCATCAGCAGGAAGAC
modifications: 5mC strand 1: 21,29,31,39,42,44,53; strand 2: 2,11,13,16,24,26,34
Does B7 bind [6]?
Result: binds

Does B7 bind (MBD-Halo-AF660 [7])?
Result: binds

B8: M7-A39-CP (dsDNA)
DNA 1: GTCTTCCTGCTGATGCAATCCGCTAGGTCGCGAGTCTCCGCCGCGAGAGGGCCGG
DNA 2: CCGGCCCTCTCGCGGCGGAGACTCGCGACCTAGCGGATT
DNA 3: GCATCAGCAGGAAGAC
modifications: 5mC strand 1: 21,29,31,39,42,44,53
Does B8 bind (MBD-Halo-AF660 [5])?
Result: no binding

B9: M7-A39O-CP (mixed)
DNA 1: GTCTTCCTGCTGATGCAATCCGCTAGGTCGCGAGTCTCCGCCGCGAGAGGGCCGG
DNA 2: CTTATCTGTTCCGGCCCTCTCGCGGCGGAGACTCGCGACCTAGCGGATT
DNA 3: GCATCAGCAGGAAGAC
modifications: 5mC strand 1: 21,29,31,39,42,44,53
Does B9 bind (MBD-Halo-AF660 [5])?
Result: no binding

B10: M0-CP (structured_DNA)
DNA 1: GTCTTCCTGCTGATGCAATCCGCTAGGTCGCGAGTCTCCGCCGCGAGAGGGCCGG
DNA 2: GCATCAGCAGGAAGAC
Does B10 bind (MBD-Halo-AF660 [5])?
Result: no binding

B11: M7-A17O-CPO (mixed)
DNA 1: GTCTTCCTGCTGATGCAATCCGCTAGGTCGCGAGTCTCCGCCGCGAGAGGGCCGG
DNA 2: CTTATCTGTTTCGCGACCTAGCGGATT
DNA 3: ATAATTAATAGCATCAGCAGGAAGAC
modifications: 5mC strand 1: 21,29,31,39,42,44,53
Does B11 bind (MBD-Halo-AF660 [8])?
Result: binds

B12: M7-A17O-CP (mixed)
DNA 1: GTCTTCCTGCTGATGCAATCCGCTAGGTCGCGAGTCTCCGCCGCGAGAGGGCCGG
DNA 2: CTTATCTGTTTCGCGACCTAGCGGATT
DNA 3: GCATCAGCAGGAAGAC
modifications: 5mC strand 1: 21,29,31,39,42,44,53
Does B12 bind (MBD-Halo-AF660 [9])?
Result: binds

B13: M4a-A17O-CP (mixed)
DNA 1: GTCTTCCTGCTGATGCAATCCGCTAGGTCGCGAGTCTCCGCCGCGAGAGGGCCGG
DNA 2: CTTATCTGTTTCGCGACCTAGCGGATT
DNA 3: GCATCAGCAGGAAGAC
modifications: 5mC strand 1: 29,31,42,44
Does B13 bind (MBD-Halo-AF660 [10])?
Result: binds

B14: M7-CP (structured_DNA)
DNA 1: GTCTTCCTGCTGATGCAATCCGCTAGGTCGCGAGTCTCCGCCGCGAGAGGGCCGG
DNA 2: GCATCAGCAGGAAGAC
modifications: 5mC strand 1: 21,29,31,39,42,44,53
Does B14 bind (MBD-Halo-AF660 [11])?
Result: binds

Does ATAATTAATAGCATCAGCAGGAAGAC (ssDNA) [CPO alone (NTC)] bind (MBD-Halo-AF660 [12])?
Result: no binding

B15: M4a-CP (structured_DNA)
DNA 1: GTCTTCCTGCTGATGCAATCCGCTAGGTCGCGAGTCTCCGCCGCGAGAGGGCCGG
DNA 2: GCATCAGCAGGAAGAC
modifications: 5mC strand 1: 29,31,42,44
Does B15 bind (MBD-Halo-AF660 [13])?
Result: binds

B16: M7-CPO (structured_DNA)
DNA 1: GTCTTCCTGCTGATGCAATCCGCTAGGTCGCGAGTCTCCGCCGCGAGAGGGCCGG
DNA 2: ATAATTAATAGCATCAGCAGGAAGAC
modifications: 5mC strand 1: 21,29,31,39,42,44,53
Does B16 bind (MBD-Halo-AF660 [14])?
Result: binds

B17: M4a-CPO (structured_DNA)
DNA 1: GTCTTCCTGCTGATGCAATCCGCTAGGTCGCGAGTCTCCGCCGCGAGAGGGCCGG
DNA 2: ATAATTAATAGCATCAGCAGGAAGAC
modifications: 5mC strand 1: 29,31,42,44
Does B17 bind (MBD-Halo-AF660 [15])?
Result: binds

B18: M7-A39m-CP (dsDNA)
DNA 1: GTCTTCCTGCTGATGCAATCCGCTAGGTCGCGAGTCTCCGCCGCGAGAGGGCCGG
DNA 2: CCGGCCCTCTCGCGGCGGAGACTCGCGACCTAGCGGATT
DNA 3: GCATCAGCAGGAAGAC
modifications: 5mC strand 1: 21,29,31,39,42,44,53; strand 2: 2,11,13,16,24,26,34
Does B18 bind (MBD-Halo-AF660 [16])?
Result: binds
